The source of these data is FireProtDB (doi:10.1016/0022-2836(92)90387-y).

For this data set the following is noted: Bacillus amyloliquefaciens; pH 6.3; 25 °C; Urea; Fluorescence; MES 50 mM; reversible: yes; whole UniProt chain shown.

B1: Ribonuclease wild type, P00648 (protein)
chain: MMKMEGIALKKRLSWISVCLLVLVSAAGMLFSTAAKTETSSHKAHTEAQVINTFDGVADYLQTYHKLPDNYITKSEAQALGWVASKGNLADVAPGKSIGGDIFSNREGKLPGKSGRTWREADINYTSGFRNSDRILYSSDWLIYKTTDHYQTFTKIR
With B1, the unfolding free energy came out at 8.83 kcal/mol.
